Test results reported in patent US20220211858A1, “TUBULAR SUPRAMOLECULAR POLYMERS” (priority 2019, published 2022).

Experiments:
[1] = Biodistribution study in U87 MG tumor-bearing mice; type: in vivo, nude mice
Experimental: Mice bearing subcutaneous tumors were established by injecting 100 μL of a U87 MG suspension in serum-free medium (2×10^6 cells) into the right flank of the mice. When the tumor reached a size of −200 mm^3, the mice were randomly grouped and received one of the following 3 treatments via intravenous injection (n=18 for each group): free CPT (4.5 mg/kg), TT 1 (4.5 mg/kg), and TT 1 (15 mg/kg). Three mice from each group were euthanized at pre-determined time points (1, 2, 4, 8, 12, and 24 h). Plasma, major organs, and tumors were collected and stored at −80° C. for further analysis. To determine the amount of free CPT and TT 1 in the samples, 100 mg tumors were mixed with 900 μL acetonitrile (containing 0.1% TFA) and then homogenized using Precellys Evolution Super Homogenizer (Bertin Technologies, France) for 3×40 s (5,600 shakes/min). The resulting suspensions were centrifuged and the supernatants were collected. For plasma, 50 μL of sample was mixed with 450 μL acetonitrile (containing 0.1% TFA) and sonicated for 1 min. The supernatants were collected using centrifugation. All samples were filtered through a 0.22 μm membrane before analysis by a UPLC system (Waters ACQuity™ Ultra Performance LC) equipped with a reverse-phase column (ACQuity UPLC@BEH, C18, 1.7 μm 2.1×150 mm) and a fluorescence detector (ACQuity FLR, Ex/Em=362/430 nm). The column was flushed with a mixture of water (0.1% TFA) and acetonitrile (0.1% TFA) at 0.3 mL/min with the following gradient: 5% acetonitrile (0-1 min), 5-95% acetonitrile (1-5 min), 95% acetonitrile (5-8 min), 95-5% acetonitrile (8-9 min), and 5% acetonitrile (9-10 min). Peaks with retention times of 5.4 min (free CPT) and 6.9 min (TT 1) were monitored.

[2] = Encapsulation of hydrophobic dyes and paclitaxel in TT 1 nanotubes; type: physicochemical
Experimental: A 300 μM in water stock solution of TT 1 prodrug was prepared and aged overnight to form nanotubes. Hydrophobic dyes, such as Coumarin 6 (C6), Nile Red, Rose Bengal lactone (Rose), and IR 780 iodide (IR 780), were dissolved in acetonitrile at a concentration of 600 μM (FIG. 18). To perform the dye encapsulation experiments, 400 μL of the pre-formed nanotube solution and 200 μL of the corresponding dye solution in acetonitrile were mixed together to make a final solution of 600 μL (H2O/MeCN=2:1, v/v) in which the concentration of both prodrug and dye was 200 μM (prodrug/dye=1:1, mol/mol). The resulting mixed nanotube and dye solution was aged overnight to allow the penetration of dye molecules into the nanotube structures and then directly lyophilized to fully remove all the solvents. Next, the lyophilized powder was reconstituted to a final prodrug concentration of 200 μM by the addition of 600 μL of water and vortexing for 60 s. The solutions were aged for at least 6 h before being centrifuged (6000 rpm, 5 min) to remove any precipitated free dye. The supernatant was collected for further study. The dye loading capacity was calculated from the percentage of dye in the supernatant to the sum of encapsulated dye and added prodrugs. To get a higher resolution of dye-doped TT 1 solution, the solutions imaged in FIG. 4A were concentrated to a concentration of 800 μM.
In addition to functional dye molecules, the hydrophobic drug paclitaxel (PTX) was also used as a model compound to dope the TT 1 nanotubes, following the procedure described in the paragraph describing CD measurements of TT solutions above. After encapsulation, analytical HPLC was used to analyze the components of drug-doped nanotubes, monitoring the absorption at 220 nm. […] The concentrations of both nanotube and PTX were determined by comparing the area under the curve of each component with its standard calibration curve, yielding an encapsulation efficiency around 11%. The CD spectrum of PTX-doped nanotube was also recorded, showing a slight decrease in intensity compared with a pure nanotube solution at the same concentration (FIG. 17B).

CC[C@]1(OC(=O)OCCSSC[C@@H](NC(C)=O)C(=O)N[C@@H](CCCCNC(=O)[C@@H](CSSCCOC(=O)O[C@]2(CC)C(=O)OCc3c2cc2n(c3=O)Cc3cc4ccccc4nc3-2)NC(C)=O)C(=O)N[C@@H](CCCCNC(=O)CCOCCOCCOCCOCCOC)C(=O)N[C@@H](CCCCNC(=O)CCOCCOCCOCCOCCOC)C(N)=O)C(=O)OCc2c1cc1n(c2=O)Cc2cc3ccccc3nc2-1 [TT 1]
increase of plasma concentration versus free CPT ([1]; 4.5 mg/kg i.v., 1 hour): approximately 129 fold | increase of tumor concentration versus free CPT ([1]; 4.5 mg/kg i.v., 1 hour): 8 fold | TT 1 converted to free CPT in the tumor ([1]; 4.5 mg/kg, 1 hour after injection): 47% | TT 1 converted to free CPT in the tumor ([1]; 4.5 mg/kg, 8 hours): 82% | TT 1 converted to free CPT in the tumor ([1]; 15 mg/kg, 1 hour after injection): 58% | TT 1 converted to free CPT in the tumor ([1]; 15 mg/kg, 8 hours): 96% | retention in the blood ([1]; i.v.): up to 12 hours | dye loading content ([2]; Coumarin 6 (C6) in TT 1 assemblies): 4.5% | dye loading content ([2]; IR-780 in TT 1 assemblies): 10.3% | dye loading content ([2]; Nile Red in TT 1 assemblies): 4.4% | dye loading content ([2]; Rose Bengal lactone in TT 1 assemblies): 14.8%
